The source of these data is paper doi:10.1101/2025.09.30.679617 (bioRxiv, 2025).

Positions count from the first letter of the chain named. Ends that are not written are not given here.

T1: PfCSP junctional peptide 21 (Plasmodium falciparum, strain not …, also: biotinylated, position not given here)
T1 chain: NPDPNANPNVDPNAN

B1: Run6_Seq1 (antibody, V domains shown)
VH: QVQLVQSGAEVRKPGASVKVSCKASGYTFTRYAIHWVRQAPGQRLEWMGWIKAGNGNTRYSQKFQGRVSIIRDTSASTVYMDLSGLRSEDTAVYYCALLTVITPDDAFDIWGQGTMVTVSS
VL: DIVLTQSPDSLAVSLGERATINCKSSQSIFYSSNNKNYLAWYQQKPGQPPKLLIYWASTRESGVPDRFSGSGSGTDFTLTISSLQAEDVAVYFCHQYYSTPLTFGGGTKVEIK
B2: Run6_Seq2 (antibody, V domains shown)
VH: B1 VH with K63N, V79A
VL: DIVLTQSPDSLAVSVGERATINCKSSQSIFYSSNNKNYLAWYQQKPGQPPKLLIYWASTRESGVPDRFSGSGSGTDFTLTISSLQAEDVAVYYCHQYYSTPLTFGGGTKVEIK
B3: Run1_Seq1 (antibody, V domains shown)
VH: QVQLVQSGTEVKKPGASVKVSCKASGYTFTSYAIHWVRQAPGQRLEWMGWIKVGNGNTRYSQKFQGRVTITRDTSASTAYMELSSLRSEDTAVYYCALLTVLTADDAFDFWGQGTMVTVSS
VL: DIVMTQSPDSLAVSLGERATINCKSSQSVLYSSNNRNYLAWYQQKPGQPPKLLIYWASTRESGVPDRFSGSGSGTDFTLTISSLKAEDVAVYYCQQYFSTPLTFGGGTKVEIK
B4: Run3_Seq1 (antibody, V domains shown)
VH: B1 VH with R31T, G54D, S69T, I71T, S75F, V79A, D82E, G85S, I102V, A107T
VL: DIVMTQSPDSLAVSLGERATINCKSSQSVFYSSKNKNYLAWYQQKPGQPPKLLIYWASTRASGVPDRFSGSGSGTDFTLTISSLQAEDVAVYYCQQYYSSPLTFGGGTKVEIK
B5: Run5_Seq2 (antibody, V domains shown)
VH: B3 VH with T9A, V53A, V68I, L102I, A104P, D106Y, F110I
VL: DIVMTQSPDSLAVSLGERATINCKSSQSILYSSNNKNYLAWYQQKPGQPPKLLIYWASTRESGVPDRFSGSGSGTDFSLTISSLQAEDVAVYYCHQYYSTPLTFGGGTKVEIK
B6: Run2_Seq2 (antibody, V domains shown)
VH: B3 VH with T9A, S31N, V53A, G66D, I70L, Y80F, L102V, A104P, F110I, M116L
VL: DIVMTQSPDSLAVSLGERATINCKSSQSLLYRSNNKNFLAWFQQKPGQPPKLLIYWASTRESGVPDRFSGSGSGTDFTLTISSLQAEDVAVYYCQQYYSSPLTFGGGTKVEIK
B7: Run2_Seq1 (antibody, V domains shown)
VH: B3 VH with T9A, V53A, I70L, S84N, L102V, A104P, A107V, F110I
VL: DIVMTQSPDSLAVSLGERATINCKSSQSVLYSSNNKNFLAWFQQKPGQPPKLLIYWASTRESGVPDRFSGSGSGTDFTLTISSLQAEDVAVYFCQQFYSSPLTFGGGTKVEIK
B8: Run7_Seq1 (antibody, V domains shown)
VH: B3 VH with T9A, S31K, I34M, M48L, V53A, K63R, G66D, L102I, A104P, F110I
VL: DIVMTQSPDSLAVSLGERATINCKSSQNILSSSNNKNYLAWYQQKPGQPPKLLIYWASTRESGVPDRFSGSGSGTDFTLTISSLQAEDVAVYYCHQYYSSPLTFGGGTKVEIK
B9: Run1_Seq2 (antibody, V domains shown)
VH: B3 VH with S77N, A104P
VL: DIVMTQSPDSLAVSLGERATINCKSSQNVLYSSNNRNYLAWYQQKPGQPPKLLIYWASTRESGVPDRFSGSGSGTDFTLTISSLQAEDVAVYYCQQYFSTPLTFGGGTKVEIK
B10: Run5_Seq1 (antibody, V domains shown)
VH: B1 VH with R12K, R31S, N55K, V68I, S69T, I71T, D82E, S84N, G85S, D106Y
VL: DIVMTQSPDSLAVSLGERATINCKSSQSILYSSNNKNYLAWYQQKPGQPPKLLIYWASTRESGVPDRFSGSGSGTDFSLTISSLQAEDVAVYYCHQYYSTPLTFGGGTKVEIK
B11: Run4_Seq1 (antibody, V domains shown)
VH: B3 VH with V53A, A79V, L102I, A104P, F110V
VL: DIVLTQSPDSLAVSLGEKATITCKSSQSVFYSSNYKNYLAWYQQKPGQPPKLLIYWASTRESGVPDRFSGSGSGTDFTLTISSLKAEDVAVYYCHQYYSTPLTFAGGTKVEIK
B12: Run4_Seq2 (antibody, V domains shown)
VH: B3 VH with I34V, V53A, A79V, L102I, A104P, F110V
VL: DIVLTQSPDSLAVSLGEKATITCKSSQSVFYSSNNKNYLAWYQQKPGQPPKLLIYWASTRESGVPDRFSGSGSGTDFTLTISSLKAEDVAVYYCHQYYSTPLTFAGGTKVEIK
B13: Run7_Seq2 (antibody, V domains shown)
VH: B3 VH with T9A, I34M, M48L, V53A, K63R, R72G, S84R, L102I, A104P, F110I
VL: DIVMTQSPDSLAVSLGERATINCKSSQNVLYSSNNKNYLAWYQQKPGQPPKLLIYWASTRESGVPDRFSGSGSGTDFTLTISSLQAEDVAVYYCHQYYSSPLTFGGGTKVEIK
B14: Run3_Seq2 (antibody, V domains shown)
VH: QVQLVQSGAEVRKPGASVKVSCKASGYTFTTYAIHWVRQAPGQRLEWMGWIKGGNGDTRYSQKFQGRLTITRDTFASTAYMELSSLRSEDTAVYYCALLTVVTPDDTFDIWGQGTMVTVSS
VL: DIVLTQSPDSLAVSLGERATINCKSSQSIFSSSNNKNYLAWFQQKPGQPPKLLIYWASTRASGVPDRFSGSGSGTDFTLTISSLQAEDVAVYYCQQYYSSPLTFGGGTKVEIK
B15: SFR1 (antibody, V domains shown)
VH: QVHLVQSGAEVKKPGASVKVSCKASGYTFSRYAIHWVRQAPGQRLEWMGWIKGGNGDTRYSQKFQDRVTITRDTSASTVYMDLSSLRSEDTAVYYCALLTVIRKDDTFDVWGQGTMVTVSS
VL: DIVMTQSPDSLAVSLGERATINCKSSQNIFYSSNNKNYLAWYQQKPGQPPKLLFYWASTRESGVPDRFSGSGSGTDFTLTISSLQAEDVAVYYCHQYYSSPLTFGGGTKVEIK
B16: SFR4 (antibody, V domains shown)
VH: B15 VH with R31T, D66G, D82E, K104L, D106E
VL: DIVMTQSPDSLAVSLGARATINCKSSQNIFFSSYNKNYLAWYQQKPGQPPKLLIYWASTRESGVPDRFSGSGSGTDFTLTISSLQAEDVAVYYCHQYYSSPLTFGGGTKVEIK
B17: SFR2 (antibody, V domains shown)
VH: B15 VH with D82E, Y95F
VL: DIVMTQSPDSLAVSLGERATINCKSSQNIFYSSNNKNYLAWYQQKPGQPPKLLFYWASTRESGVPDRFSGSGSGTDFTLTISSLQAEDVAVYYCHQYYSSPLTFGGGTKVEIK
B18: SFR6 (antibody, V domains shown)
VH: QVHLVQSGAEVKKPGASVKVSCKASGYTFSSYAIHWVRQAPGQRLDWMGWIKGGNGDTRYSETFQDRVTISRDTSATTVYMELSSLRSEDTAMYFCALLTVIRRDDTFDIWGQGTMVTVSS
VL: DIVLTQSPDSLAVSLGERATINCKSSQNIFFNSNKKNYLAWYQQKPRQPPKLLFYWASTRESGVPDRFSGSGSGTDFTLTISSLQAEDVAVYYCHQFYSTPLTFGGGTKVEIK

The assay addresses T1, PfCSP junctional peptide 21.
Turning to B1, the binding result was “binds”.
Regarding B2, the binding result is on record as “binds”.
Take B3: the binding result is given as “binds”.
Turning to B4, the binding result is given as “binds”.
Take B5: the binding result is recorded as “binds”.
For B6, the binding result is on record as “binds”.
B7: the binding result is “binds”.
Turning to B8, the binding result is given as “binds”.
With B9 the entry was “binds”; with B10, “binds”; with B11, “binds”.
Turning to B12, the binding result is reported as “binds”.
With B13, the binding result was “binds”.
Take B14: the binding result is “binds”.
Regarding B15, the binding result is listed as “binds”.
Consider B16, for which the binding result is “binds”.
As to B17, the binding result was “binds”.
For B18, the binding result is recorded as “binds”.
